Experimental data as given in patent US20130059773A1 (published 2013).

Biological target: T1, Proliferating Cell Nuclear Antigen (PCNA), wild type, cellular (cytosolic PCNA of human neutrophils) (human, UniProt P12004 1-261)
T1 construct: Endogenous protein in human neutrophil cytosol in the co-immunoprecipitations; Expressed from pcDNA3-PCNA in PLB985 cells in the caspase-9 activity row; also called cytoplasmic PCNA; PLB985-PCNA (overexpressed form)
Assay: co-immunoprecipitation from neutrophil cytosol, western blot
Procedure: Western blot analysis and co-immunoprecipitation experiments. […] Cytosol (500 mg) was mixed with 50 ml of protein G and Ab5 pAb and incubated for 30 min at 4° C. under shaking. The sample was loaded onto a column containing Sepharose-coated magnetic beads (Milteny), washed with a stringent washing buffer (50 mM Tris, 500 mM NaCl, 1% NP-40, 0.5% Triton X-100). The column was washed twice with this buffer, twice with the same buffer except that the NaCl was 300 mM and, finally, 5 times with a hyposaline buffer (20 mM Tris pH 7.5). The sample was eluted from the column with 30 ml 5× sample buffer and analyzed by Western blotting using different mAb to potential partners.

T1 sequence (P12004 whole entry): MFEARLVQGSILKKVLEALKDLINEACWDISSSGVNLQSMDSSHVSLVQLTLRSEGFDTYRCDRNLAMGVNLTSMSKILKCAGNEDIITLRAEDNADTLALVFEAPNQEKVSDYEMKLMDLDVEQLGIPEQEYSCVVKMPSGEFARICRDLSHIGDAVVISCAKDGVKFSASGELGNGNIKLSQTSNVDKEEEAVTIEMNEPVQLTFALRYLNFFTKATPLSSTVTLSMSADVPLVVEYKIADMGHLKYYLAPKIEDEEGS

B1: Bid (other, human, UniProt P55957 1-195, looked up)
chain: MDCEVNNGSSLRDECITNLLVFGFLQSCSDNSFRRELDALGHELPVLAPQWEGYDELQTDGNRSSHSRLGRIEADSESQEDIIRNIARHLAQVGDSMDRSIPPGLVNGLALQLRNTSRSEEDRNRDLATALEQLLQAYPRDMEKEKTMLVLALLLAKKVASHTPSLLRDVFHTTVNFINQNLRTYVRSLARNGMD
binding result: no binding
